From the supplement of paper PMC11908140

B1: library; numbered along this chain (parent)
chain: MRKPRAAVGSGHRKQAASQEGRQKHAKNNSQAKPSACDGLARQPEEVVLQASVSSYHLFRDVAEVTAFRGSLLSWYDQEKRDLPWRRRAEDEMDLDRRAYAVWVSEVMLQQTQVATVINYYTGWMQKWPTLQDLASASLEEVNQLWAGLGYYSRGRRLQEGARKVVEELGGHMPRTAETLQQLLPGVGRYTAGAIASIAFGQATGVVDGNVARVLCRVRAIGADPSSTLVSQQLWGLAQQLVDPARPGDFNQAAMELGATVCTPQRPLCSQCPVESLCRARQRVEQEQLLASGSLSGSPDVEECAPNTGQCHLCLPPSEPWDQTLGVVNFPRKASRKPPREESSATCVLEQPGALGAQILLVQRPNSGLLAGLWEFPSVTWEPSEQLQRKALLQELQRWAGPLPATHLRHLGEVVHTFSHIKLTYQVYGLALEGQTPVTTVPPGARWLTQEEFHTAAVSTAMKKVFRVYQGQQPGTCMGSKRSQVSSPCSRKKPRMGQQVLDNFFRSHISTDAHSLNSAAQ

Variants of: B1
Assay: 8OG:A repair function score (normalized; synonymous = 0, nonsense = -1) (normalized log-likelihood score); higher = more repair activity (WT-like)
Settings: with 8OG:A DNA repair reporter (GFP) in HEK-293 MUTYH KO cells
Procedure, shortened: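 With 10 pg/ml doxycycline, MUTYH knockout HEK-293 cells carrying lentiviral MUTYH cDNA NNN codon-scan libraries were co-transfected with mCherry and an 8OG:A GFP repair reporter. Viable mCherry+ cells were sorted into GFP+ (repair) and GFP− bins at 72 h, three replicates per tile, and tile amplicons were sequenced. Per-tile Rosace fitness scores were then normalized into a repair function score anchored on synonymous and nonsense distributions. Medians were fixed at 0 for synonymous and -1 for nonsense, excluding variants under 300 counts per million at the start.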

Variant | 8OG:A repair function score
MRKPRAAVGSGHRKQAASQEGRQKHAKNNSQAKPSACDGLARQPEEVVLQASVSSYHLFRDVAEVTAFRGSLLSWYDQEKRDLPWRRRAEDEMDLDRRAYAVWVSEVMLQQTQVATVINYYTGWMQKWPTLQDLASASLEEVNQLWAGLGYYSRGRRLQEGARKVVEELGGHMPRTAETLQQLLPGVGRYTAGAIASIAFGQATGVVDGNVARVLCRVRAIGADPSSTLVSQQLWGLAQQLVDPARPGDFNQAAMELGATVCTPQRPLCSQCPVESLCRARQRVEQEQLLASGSLSGSPDVEECAPNTGQCHLCLPPSEPWDQTLGVVNFPRKASRKPPREESSATCVLEQPGALCAQILLVQRPNSGLLAGLWEFPSVTWEPSEQLQRKALLQELQRWAGPLPATHLRHLGEVVHTFSHIKLTYQVYGLALEGQTPVTTVPPGARWLTQEEFHTAAVSTAMKKVFRVYQGQQPGTCMGSKRSQVSSPCSRKKPRMGQQVLDNFFRSHISTDAHSLNSAAQ [G356C] | -0.0641
MRKPRAAVGSGHRKQAASQEGRQKHAKNNSQAKPSACDGLARQPEEVVLQASVSSYHLFRDVAEVTAFRGSLLSWYDQEKRDLPWRRRAEDEMDLDRRAYAVWVSEVMLQQTQVATVINYYTGWMQKWPTLQDLASASLEEVNQLWAGLGYYSRGRRLQEGARKVVEELGGHMPRTAETLQQLLPGVGRYTAGAIASIAFGQATGVVDGNVARVLCRVRAIGADPSSTLVSQQLWGLAQQLVDPARPGDFNQAAMELGATVCTPQRPLCSQCPVESLCRARQRVEQEQLLASGSLSGSPDVEECAPNTGQCHLCLPPSEPWDQTLGVVNFPRKASRKPPREESSATCVLEQPGALGAQILLVQRPNSGLLAGLWEFPSVTWEPSEQLQRKALLQELQRWAGPLPATHLRHLGEVVHTFSHIKLTYQVYGLALEKQTPVTTVPPGARWLTQEEFHTAAVSTAMKKVFRVYQGQQPGTCMGSKRSQVSSPCSRKKPRMGQQVLDNFFRSHISTDAHSLNSAAQ [G434K] | 0.22
MRKPRAAVGSGHRKQAASQEGRQKHAKNNSQAKPSACDGLARQPEEVVLQASVSSYHLFRDVAEVTAFRGSLLSWYDQEKRDLPWRRRAEDEMDLDRRAYAVWVSEVMLQQTQVATVINYYTGWMQKWPTLQDLASASLEEVNQLWAGLGYYSRGRRLQEGARKVVEELGGHMPRTAETLQQLLPGVGRYTAGAIASIAFGQATGVVDGNVARVLCRVRAIGADPSSTLVSQQLWGLAQQLVDPARPGDFNQAAMELGATVCTPQRPLCSQCPVESLCRARQRVEQEQLLASGSLSGDPDVEECAPNTGQCHLCLPPSEPWDQTLGVVNFPRKASRKPPREESSATCVLEQPGALGAQILLVQRPNSGLLAGLWEFPSVTWEPSEQLQRKALLQELQRWAGPLPATHLRHLGEVVHTFSHIKLTYQVYGLALEGQTPVTTVPPGARWLTQEEFHTAAVSTAMKKVFRVYQGQQPGTCMGSKRSQVSSPCSRKKPRMGQQVLDNFFRSHISTDAHSLNSAAQ [S298D] | -0.0341
MRKPRAAVGSGHRKQAASQEGRQKHAKNNSQAKPSACDGLARQPEEVVLQASVSSYHLFRDVAEVTAFRGSLLSWYDQEKRDLPWRRRAEDEMDLDRRAYAVWVSEVMLQQTQVATVINYYTGWMQKWPTLQDLASASLEEVNQLWAGLGYYSRGRRLQEGARKVVEELGGHMPRTAETLQQLLPGVGRYTAGAIASIAFGQATGVVDGNVARVLCRVRAIGADPSSTLVSQQLWGLAQQLVDPARPGDFNQAAMELGATVCTPQRPLCSQCPVESLCRARQRVEQEQLLASGSLSGSPDVEECAPNTGQCHLCLPPSEPWDQTLGVVNFPRKASRKPPREESSATCVLEQPGALGAQILLVQRPNSGLLAGLWEFPSVTWEPSEQLQRKALLQELQRWAGPLPATHLRHLGEVVHTFSHIKLTYQVYGLALEGQTPVTTVPPGARWLTQEEFHTAAVSTAMKKVFRVYQGQQPGTCMGSKRSQVSSPCSRKKPRNGQQVLDNFFRSHISTDAHSLNSAAQ [M496N] | 0.00145
MRKPRAAVGSGHRKQAASQEGRQKHAKNNSQAKPSACDGLARQPEEVVLQASVSSYHLFRDVAEVTAFRGSLLSWYDQEKRDLPWRRRAEDEMDLDRRAYAVWVSEVMLQQTQVATVINYYTGWMQKWPTLQDLASASLEEVNQLWAGLGYYSRGRRLQEGARKVVEELGGHMPRYAETLQQLLPGVGRYTAGAIASIAFGQATGVVDGNVARVLCRVRAIGADPSSTLVSQQLWGLAQQLVDPARPGDFNQAAMELGATVCTPQRPLCSQCPVESLCRARQRVEQEQLLASGSLSGSPDVEECAPNTGQCHLCLPPSEPWDQTLGVVNFPRKASRKPPREESSATCVLEQPGALGAQILLVQRPNSGLLAGLWEFPSVTWEPSEQLQRKALLQELQRWAGPLPATHLRHLGEVVHTFSHIKLTYQVYGLALEGQTPVTTVPPGARWLTQEEFHTAAVSTAMKKVFRVYQGQQPGTCMGSKRSQVSSPCSRKKPRMGQQVLDNFFRSHISTDAHSLNSAAQ [T176Y] | -0.16
MRKPRAAVGSGHRKQAASQEGRQKHAKNNSQAKPSACDGLARQPEEVVLQASVSSYHLFRDVAEVTAFRGSLLSWYDQEKRDLPWRRRAEDEMDLDRRAYAVWVSEVMLQQTQVATVINYYTGWMQKWPTLQDLASASLEEVNQLWAGLGYYSRGRRLQEGARKVVEELGGHMPRTAETLQQLLPGVGRYTAGAIASIAFGQATGVVDGNVARVLCRVRAIGADPSSTLVSQQLWGLAQQLVDPARPGDFNQAAMELGATVCTPQRPLCSQCPVDSLCRARQRVEQEQLLASGSLSGSPDVEECAPNTGQCHLCLPPSEPWDQTLGVVNFPRKASRKPPREESSATCVLEQPGALGAQILLVQRPNSGLLAGLWEFPSVTWEPSEQLQRKALLQELQRWAGPLPATHLRHLGEVVHTFSHIKLTYQVYGLALEGQTPVTTVPPGARWLTQEEFHTAAVSTAMKKVFRVYQGQQPGTCMGSKRSQVSSPCSRKKPRMGQQVLDNFFRSHISTDAHSLNSAAQ [E275D] | -0.113
MRKPRAAVGSGHRKQAASQEGRQKHAKNNSQAKPSACDGLARQPEEVVLQASVSSYHLFRDVAEVTAFRGSLLSWYDQEKRDLPWRRRAEDEMDLDRRAYAVWVSEVMLQQTQVATVINYYTGWMQKWPTLQDLASASLEEVNQLWAGLGYYSRGRRLQEGARKVVEELGGHMPRTAETLQQLLPGVGRYTAGAIASIAFGQATGVVDGNVARVLCRVRAIGADPSSTLVSQQLWGLAQQLVDPARPGDFNQAAMELGATVCTPQRPLCSQCPVESLCRARQRVEQEQLLASGSLSGSPDVEECAPNTGQVHLCLPPSEPWDQTLGVVNFPRKASRKPPREESSATCVLEQPGALGAQILLVQRPNSGLLAGLWEFPSVTWEPSEQLQRKALLQELQRWAGPLPATHLRHLGEVVHTFSHIKLTYQVYGLALEGQTPVTTVPPGARWLTQEEFHTAAVSTAMKKVFRVYQGQQPGTCMGSKRSQVSSPCSRKKPRMGQQVLDNFFRSHISTDAHSLNSAAQ [C311V] | -0.634
MRKPRAAVGSGHRKQAASQEGRQKHAKNNSQAKPSACDGLARQPEEVVLQASVSSYHLFRDVAEVTAFRGSLLSWYDQEKRDLPWRRRAEDEMDLDRRAYAVWVSEVMLQQTQVATVINYYTGWMQKWPTLQDLASASLEEVNQLWAGLGYYSRGRRLQEGARKVVEELGGHMPRTAETLQQLLPGVGRYTAGAIASIAFGQATGVVDGNVARVLCRVRAIGADPSSTLVSQQLWGLAQQLVDPARPGDFNQAAMELGATVCTPQRPLCSQCPVESLCRARQRVEQEQLLASGSLSGSPDVEECAPNTGQCHLCLPPSEPWDQTLGVVNFPRKASRKPPREESSATCVLEQPGALGAQILLVQRPNSGLLAGLWEFPSVTWEPSEQLQRKALLQELQRWAGPLPATHLRHLGEVVHTFSHIKLTYQVYGLALEGQTPVTTVPPGARWLTQEEFHTAAVSTAMKKVFRVYQGQQPGTCMGSKRSQVSSPCSRKKPRMGQQVLDNFFRSHISTDAHSRNSAAQ [L516R] | -0.0194
MRKPRAAVGSGHRKQAASQEGRQKHAKNNSQAKPSACDGLARQPEEVVLQASVSSYHLFRDVAEVTAFRGSLLSWYDQEKRDLPWRRRAEDEMDLDRRAYAVWVSEVMLQQTQVATVINYYTGWMQKWPTLQDLASASLEEVNQLWAGLGYYSRGRRLQEGARKVVEELGGHMPRTAETLQQLLPGVGRYTAGAIASIAFGQATGVVDGNVARVLCRVRAIGADPSSTLVSQQLWGLAQQLVDPARPGDFNQAAMELGATVCTPQRPLCSQCPVESLCRARQRVEQEQLLASGSLSGSPDVEECAPNTGQCHLCLPPSEPWDQTLGVVNFPRKASRKPPREESSATCVLEQPGALGAQILLVQRPNSGLLAGLWEFPSVTWEPSEQLQRKALLQELQRWAGPLPATHLRHLGEVVHTFSHIKLTYQVYGLALEGQTPVTTVPPGARWFTQEEFHTAAVSTAMKKVFRVYQGQQPGTCMGSKRSQVSSPCSRKKPRMGQQVLDNFFRSHISTDAHSLNSAAQ [L448F] | -0.205
MRKPRAAVGSGHRKQAASQEGRQKHAKNNSQAKPSACDGLARQPEEVVLQASVSSYHLFRDVAEVTAFRGSLLSWYDQEKRDLPWRRRAEDEMDLDRRAYAVWVSEVMLQQTQVATVINYYTGWMQKWPTLQDLASASLEEVNQLWAGLGYYSRGRRLQEGARKVVEELGGHMPRTAETLQQLLPGVGRYTAGAIASIAFGQATGVVDGNVARVLCRVRAIGADPSSTLVSQQLWGLAQQLVDPARPGDFNQAAMELGATVCTPQRPLCSQCPVESLCRARQRVEQEQLLASGSLSGSPDVEECAPNTGQCHLCLPPSEPWDQTLGVVNFPRKASRKPPREESSATCVLEQPGALGAQILLVQRPNSGLLAGLWEFPSVTWEPSEQLQRKALLQELQRWAGPLPATHLRHLGEVVHTFSHIKLTYQVYGLALEGQTPVTTVPPGARWLTQEEFHTAAVSTAMKKVFRVYGGQQPGTCMGSKRSQVSSPCSRKKPRMGQQVLDNFFRSHISTDAHSLNSAAQ [Q470G] | -0.105
MRKPRAAVGSGHRKQAASQEGRQKHAKNNSQAKPSACDGLARQPEEVVLQASVVSYHLFRDVAEVTAFRGSLLSWYDQEKRDLPWRRRAEDEMDLDRRAYAVWVSEVMLQQTQVATVINYYTGWMQKWPTLQDLASASLEEVNQLWAGLGYYSRGRRLQEGARKVVEELGGHMPRTAETLQQLLPGVGRYTAGAIASIAFGQATGVVDGNVARVLCRVRAIGADPSSTLVSQQLWGLAQQLVDPARPGDFNQAAMELGATVCTPQRPLCSQCPVESLCRARQRVEQEQLLASGSLSGSPDVEECAPNTGQCHLCLPPSEPWDQTLGVVNFPRKASRKPPREESSATCVLEQPGALGAQILLVQRPNSGLLAGLWEFPSVTWEPSEQLQRKALLQELQRWAGPLPATHLRHLGEVVHTFSHIKLTYQVYGLALEGQTPVTTVPPGARWLTQEEFHTAAVSTAMKKVFRVYQGQQPGTCMGSKRSQVSSPCSRKKPRMGQQVLDNFFRSHISTDAHSLNSAAQ [S54V] | -0.0294
MRKPRAAVGSGHRKQAASQEGRQKHAKNNSQAKPSACDGLARQPEEVVLQASVSSYHLFRDVAEVTAFRGSLLSWYDQEKRDLPWRRRAEDEMDLDRRAYAVWVSEVMLQQTQVATVINYYTGWMQKWPTLQDLASASLEEVNQLWAGLGYYSRGRRLQEGARKVVEELGGHMPRTAETLQQLLPGVGRYTAGAIASIAFGQATGVVDGNVARVLCRVRAIGADPSSTLVSQQLWGLAQQLVWPARPGDFNQAAMELGATVCTPQRPLCSQCPVESLCRARQRVEQEQLLASGSLSGSPDVEECAPNTGQCHLCLPPSEPWDQTLGVVNFPRKASRKPPREESSATCVLEQPGALGAQILLVQRPNSGLLAGLWEFPSVTWEPSEQLQRKALLQELQRWAGPLPATHLRHLGEVVHTFSHIKLTYQVYGLALEGQTPVTTVPPGARWLTQEEFHTAAVSTAMKKVFRVYQGQQPGTCMGSKRSQVSSPCSRKKPRMGQQVLDNFFRSHISTDAHSLNSAAQ [D243W] | -0.67
